Target: streptavidin (UniProt P22629 25-183)
Assay: aptamer microarray

Sequence of streptavidin (P22629 25-183): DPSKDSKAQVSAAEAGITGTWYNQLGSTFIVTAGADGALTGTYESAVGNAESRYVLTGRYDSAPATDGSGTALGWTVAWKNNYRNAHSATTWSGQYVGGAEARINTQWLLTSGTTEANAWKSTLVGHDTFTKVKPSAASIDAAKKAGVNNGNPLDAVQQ

ATTGACCGCTGTGTGACGCAACACTCAATTTTTTTTTTTT (structured_DNA) [St-2-1_T11]
binding result: binds

Source: article PMC3686109
